Where two headings read alike, the source gives them in different places.
Legend:
SEC [1] = biological target: the molecule itself; test: SEC
SEC [2] = biological target: the molecule itself; test: SEC; remark: listed apart in the source

Row | Protein | stoichiometry N (SEC [1]) | stoichiometry N (SEC [2])
1 | Staphylococcus aureus strain Newman CstB, wild-type, full-length (enzyme, UniProt G5ELA4 1-444, looked up) MFFKQFYDNHLSQASYLVGCQRTGEAIIIDPVRDLSKYIEVADSEGLTITQATETHIHADFASGIRDVAKRLNANIYVSGEGEDALGYKNMPSKTQFVKHGDIIQVGNVKLEVLHTPGHTPESISFLLTDLGGGSSVPMGLFSGDFIFVGDIGRPDLLEKSVQIKGSTEISAKQMYESVQNIKNLPDYVQIWPGHGAGSPCGKALGAIPISTIGYEKINNWAFNEIDETKFIESLTSNQPAPPHHFAQMKQVNQFGMNLYQSYDVYPSLDNKRVAFDLRSKEAFHGGHTKGTINIPYNKNFINQIGWYLDFEKDIDLIGDKSTVEKAKHTLQLIGFDKVAGYRLPKSGISTQSVHSADMTGKEEHVLDVRNDEEWNNGHLDQAVNIPHGKLLNENIPFNKEDKIYVHCQSGVRSSIAVGILESKGFENVVNIREGYQDFPESLK | 4 | –
2 | C201S CstB, full-length (enzyme) MFFKQFYDNHLSQASYLVGCQRTGEAIIIDPVRDLSKYIEVADSEGLTITQATETHIHADFASGIRDVAKRLNANIYVSGEGEDALGYKNMPSKTQFVKHGDIIQVGNVKLEVLHTPGHTPESISFLLTDLGGGSSVPMGLFSGDFIFVGDIGRPDLLEKSVQIKGSTEISAKQMYESVQNIKNLPDYVQIWPGHGAGSPSGKALGAIPISTIGYEKINNWAFNEIDETKFIESLTSNQPAPPHHFAQMKQVNQFGMNLYQSYDVYPSLDNKRVAFDLRSKEAFHGGHTKGTINIPYNKNFINQIGWYLDFEKDIDLIGDKSTVEKAKHTLQLIGFDKVAGYRLPKSGISTQSVHSADMTGKEEHVLDVRNDEEWNNGHLDQAVNIPHGKLLNENIPFNKEDKIYVHCQSGVRSSIAVGILESKGFENVVNIREGYQDFPESLK | – | 4
3 | CstB^Rhod (isolated C-terminal rhodanese domain of CstB, residues 347-444) (domain or fragment, Staphylococcus aureus strain Newman, UniProt G5ELA4 347-444, looked up) SGISTQSVHSADMTGKEEHVLDVRNDEEWNNGHLDQAVNIPHGKLLNENIPFNKEDKIYVHCQSGVRSSIAVGILESKGFENVVNIREGYQDFPESLK | – | ~3

Reference: article PMC4874178 (Biochemistry, 2015)
